# Reference: patent US20230348614A1 (VISTERRA, published 2023)
# Changes are numbered by the printed parent chain.
# B1: Fab fragment of mAb 4320 (Fab, V domains shown)
# VH: QVQLVQSGAEVKKPGASVKVSCKASGYSFSSYYMHWVRQAPGQGLEWMGTIHPSDSTTNYNQKFQGRVTMTVDTSTRTAYMELSSLRSEDTAVYYCANFVYWGQGTTVTVSS
# VL: DIVMTQTPLSLSVTPGQPASISCKSSKSLLYKDGKTYLNWFLQKPGQSPQLLIYVVSTRASGVPDRFSGSGSGTDFTLKISRVEAEDVGVYYCQQLVEYPYTFGQGTKLEIKR
# modifications: N-terminal Q1 observed as pyroglutamic acid (PCA) in the 138-2-5 complex
# notes: In the crystal structures heavy chain residues 1-213 were traced; also called Fab4320
# Legend:
# R117A = biological target: T1, R117A (Homo sapiens, UniProt P18827); test: alanine scan: flow cytometry on HEK-293T cells expressing the mutant clone, 4320 Fab 0.50 ug/mL, normalised to WT CD138; Range %WT Binding 13; Normalized 4320 vs. BB4 14.8
# T1 construct: clone of the alanine scanning library on HEK-293T cells; m17 with one substitution; also called CD138 R117A
# T1 sequence (CD138 (SDC1), full length, point mutant, looked up): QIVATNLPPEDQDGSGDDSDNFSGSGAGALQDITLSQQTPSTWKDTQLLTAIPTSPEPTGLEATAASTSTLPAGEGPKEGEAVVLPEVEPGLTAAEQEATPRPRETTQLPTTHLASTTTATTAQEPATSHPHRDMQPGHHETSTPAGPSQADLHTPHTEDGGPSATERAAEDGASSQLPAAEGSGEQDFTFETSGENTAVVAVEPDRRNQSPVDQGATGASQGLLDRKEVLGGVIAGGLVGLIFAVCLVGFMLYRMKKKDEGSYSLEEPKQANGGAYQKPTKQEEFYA
# Method: (§1) Serial dilutions of each MAb were tested for immunoreactivity against cells expressing target protein (WT) or vector alone. Validation of target expression and optimization of detection and binding of anti-CD138 antibodies both by flow cytometry was completed in replicate (N=4). The optimal screening concentration for each MAb was determined based on the raw signal values and signal-to-background calculations specifically optimized for each test article. Optimized parameters included the use of 10% goat serum as blocking reagent. Primary antibody staining was for 60 minutes at 25° C. Wash buffer include phosphate buffered saline (divalent metal ion free), pH 7.4. […] Secondary antibodies were diluted 1:400 and incubated for 30 minutes at 25° C.
# (§2) Library screens of very-high-affinity mAbs can fail to yield critical residues for antibody binding due to deficiencies of such an assay to detect and differentiate critical vs. less critical binding based on affinity and quantification of cell binding. One common approach in the literature is the use of monovalent antibody derived fragments such as Fab usually weakens binding sufficiently to allow identification of critical residues for binding. […] Binding of each test Ab to each mutant clone in the alanine scanning library was determined, in duplicate, and likewise evaluated by flow cytometry.
# L107A = biological target: T2, L107A (Homo sapiens, UniProt P18827); test: alanine scan: flow cytometry on HEK-293T cells expressing the mutant clone, 4320 Fab 0.50 ug/mL, normalised to WT CD138; Range %WT Binding 13; Normalized 4320 vs. BB4 16.8
# T2 construct: clone of the alanine scanning library on HEK-293T cells; m17 with one substitution; also called CD138 L107A
# T2 sequence (CD138 (SDC1), full length, point mutant, looked up): T1 sequence (CD138 (SDC1), full length, point mutant, looked up) with L85A, A95R
# Method: as §1, §2
# G184A = biological target: T3, G184A (Homo sapiens, UniProt P18827); test: alanine scan: flow cytometry on HEK-293T cells expressing the mutant clone, 4320 Fab 0.50 ug/mL, normalised to WT CD138; Range %WT Binding 17; Normalized 4320 vs. BB4 60.6
# T3 construct: clone of the alanine scanning library on HEK-293T cells; m17 with one substitution; also called CD138 G184A
# T3 sequence (CD138 (SDC1), full length, point mutant, looked up): T1 sequence (CD138 (SDC1), full length, point mutant, looked up) with A95R, G162A
# Method: as §1, §2
# T188A = biological target: T4, T188A (Homo sapiens, UniProt P18827); test: alanine scan: flow cytometry on HEK-293T cells expressing the mutant clone, 4320 Fab 0.50 ug/mL, normalised to WT CD138; Range %WT Binding 29; Normalized 4320 vs. BB4 59.8
# T4 construct: clone of the alanine scanning library on HEK-293T cells; m17 with one substitution; also called CD138 T188A
# T4 sequence (CD138 (SDC1), full length, point mutant, looked up): T1 sequence (CD138 (SDC1), full length, point mutant, looked up) with A95R, T166A
# Method: as §1, §2
# P167A = biological target: T5, P167A (Homo sapiens, UniProt P18827); test: alanine scan: flow cytometry on HEK-293T cells expressing the mutant clone, 4320 Fab 0.50 ug/mL, normalised to WT CD138; Range %WT Binding 46; Normalized 4320 vs. BB4 50.9
# T5 construct: clone of the alanine scanning library on HEK-293T cells; m17 with one substitution; also called CD138 P167A
# T5 sequence (CD138 (SDC1), full length, point mutant, looked up): T1 sequence (CD138 (SDC1), full length, point mutant, looked up) with A95R, P145A
# Method: as §1, §2
binder,measurement,setting,value
B1,Mean %WT Binding,R117A,14.4 %WT
same,Mean %WT Binding,L107A,18.2 %WT
same,Mean %WT Binding,G184A,60.1 %WT
same,Mean %WT Binding,T188A,57.4 %WT
same,Mean %WT Binding,P167A,56.4 %WT
